Consider one molecule from patent US20260275312, “CRISPR NUCLEASE POLYPEPTIDES AND GENE EDITING SYSTEMS COMPRISING SUCH” (ARBOR BIOTECHNOLOGIES, INC., published 2026).

Data set [1] deals with T1, Nuclease H L54R/L323R/T783R (synthetic construct, L54R,L323R,T783R).
T1 chain: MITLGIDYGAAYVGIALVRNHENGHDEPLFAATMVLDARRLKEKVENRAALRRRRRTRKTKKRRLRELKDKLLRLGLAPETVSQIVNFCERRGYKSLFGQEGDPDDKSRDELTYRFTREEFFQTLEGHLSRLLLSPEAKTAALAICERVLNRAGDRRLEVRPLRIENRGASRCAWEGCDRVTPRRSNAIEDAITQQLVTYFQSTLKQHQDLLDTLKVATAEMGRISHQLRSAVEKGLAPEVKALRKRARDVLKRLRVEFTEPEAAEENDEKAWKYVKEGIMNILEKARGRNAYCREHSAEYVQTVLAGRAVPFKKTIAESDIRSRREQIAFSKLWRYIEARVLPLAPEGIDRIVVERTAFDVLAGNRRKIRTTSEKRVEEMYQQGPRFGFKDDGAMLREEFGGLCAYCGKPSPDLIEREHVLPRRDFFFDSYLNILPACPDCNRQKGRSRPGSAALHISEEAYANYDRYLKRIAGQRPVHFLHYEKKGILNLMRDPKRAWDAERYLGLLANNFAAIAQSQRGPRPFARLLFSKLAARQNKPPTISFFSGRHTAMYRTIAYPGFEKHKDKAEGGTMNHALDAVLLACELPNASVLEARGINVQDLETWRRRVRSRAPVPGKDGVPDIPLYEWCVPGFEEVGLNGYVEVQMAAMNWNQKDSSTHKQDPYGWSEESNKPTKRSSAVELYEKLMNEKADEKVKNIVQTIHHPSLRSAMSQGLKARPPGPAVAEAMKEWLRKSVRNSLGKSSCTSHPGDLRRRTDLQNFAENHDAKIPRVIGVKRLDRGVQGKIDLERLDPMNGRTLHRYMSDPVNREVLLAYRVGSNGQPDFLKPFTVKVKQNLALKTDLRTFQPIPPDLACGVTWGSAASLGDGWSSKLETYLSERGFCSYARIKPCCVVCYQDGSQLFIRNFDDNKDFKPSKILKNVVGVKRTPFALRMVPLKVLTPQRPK
As to the kind of experiment: cell_activity; HEK293T; PAM AAC. The settings on record: tags: N-term SV40 NLS, XTEN linker + C-term nucleoplasmin NLS. The procedure: (§1) HEK293T cells were transfected with plasmids expressing the Nuclease H polypeptides and the gRNAs provided herein following the methods provided in Example 1 above. Gene editing efficiencies were determined by NGS following the methods also provided in Example 1. The NGS results were analyzed also following the methods provided in Example 1 above.
(§2) Each Nuclease H variant and RNA guide (see Table 16) was cloned as described in Example 9. HEK293T cells were further transfected, followed by NGS analysis, as described in Example 10. For each target, indel ratios, referring to the percentage of NGS reads comprising indels, were calculated for the reference Nuclease H (SEQ ID NO: 64) and for each Nuclease H variant. The indel ratios shown in Table 18 were calculated as the average of two bioreplicates, each of which contained two technical replicates.

The target in data set [2] is T2, Nuclease H T783R/E43R/A170R (synthetic construct, T783R,E43R,A170R).
T2 chain: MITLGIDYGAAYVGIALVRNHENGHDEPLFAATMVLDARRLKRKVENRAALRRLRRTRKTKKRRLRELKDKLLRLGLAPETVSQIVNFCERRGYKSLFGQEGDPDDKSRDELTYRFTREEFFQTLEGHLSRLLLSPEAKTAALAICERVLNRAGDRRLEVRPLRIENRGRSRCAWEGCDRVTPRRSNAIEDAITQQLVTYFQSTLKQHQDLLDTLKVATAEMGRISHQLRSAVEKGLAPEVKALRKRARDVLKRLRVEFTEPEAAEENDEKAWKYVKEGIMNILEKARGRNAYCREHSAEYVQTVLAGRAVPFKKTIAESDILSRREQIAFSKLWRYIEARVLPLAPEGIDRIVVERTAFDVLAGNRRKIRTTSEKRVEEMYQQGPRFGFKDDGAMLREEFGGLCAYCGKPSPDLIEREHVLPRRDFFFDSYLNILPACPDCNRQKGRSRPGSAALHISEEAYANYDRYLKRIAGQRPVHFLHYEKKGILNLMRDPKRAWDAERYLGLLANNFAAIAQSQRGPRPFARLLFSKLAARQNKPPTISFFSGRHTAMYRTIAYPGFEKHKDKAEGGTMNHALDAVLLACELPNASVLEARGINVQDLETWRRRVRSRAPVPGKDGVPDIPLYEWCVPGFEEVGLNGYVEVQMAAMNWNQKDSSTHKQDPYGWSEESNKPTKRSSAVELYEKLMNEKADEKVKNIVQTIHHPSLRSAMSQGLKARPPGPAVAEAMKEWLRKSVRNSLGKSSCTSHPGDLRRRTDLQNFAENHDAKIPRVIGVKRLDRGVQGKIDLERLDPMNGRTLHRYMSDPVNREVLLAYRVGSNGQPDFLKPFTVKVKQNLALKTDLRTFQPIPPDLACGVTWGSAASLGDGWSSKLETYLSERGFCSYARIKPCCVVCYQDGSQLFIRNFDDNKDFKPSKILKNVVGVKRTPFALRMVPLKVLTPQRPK
As to the kind of experiment: cell_activity; HEK293T; PAM AAC. The settings on record: tags: N-term SV40 NLS, XTEN linker + C-term nucleoplasmin NLS. The protocol: as §1, §2

B1: H AAVS1-T5 RNA guide ; AAVS1-T5 target (H) (ssRNA ; dsDNA)
RNA: GGCUAUAAUCCAUGCUGACCGUUUCAAUCAACCUGAUCUCUCUGCUUGCGCUGCAGGCUUCAUAAGAUCAGUAGGUUGAAAAGAGCAUCCGUCCGACAUGCACUCCGGGAUGGGGCAGUCCCGGCUCUUGCGGUUCCCGAUGCAGUUAUGUGUCCGCGGAACACGGUGUCGGACACGUCGCAAGACAGGAUGUGAGCCCAUUAUCCACAUUAGGAUCAAUGUACGCAUGAGCAGUCCGCAAUGCCGGGGACGCU
DNA 1: GGCTATAATCCATGCTGACC
DNA 2: GGTCAGCATGGATTATAGCC
As for B1, the activity came out at 0.4 indel ratio in data set [1] and 0.184 indel ratio in data set [2].
